Series [1] can be described thus: Off-rate of 3H-biotin from streptavidin (cold biotin chase). It is filed as binding. As to conditions: 50 μM cold biotin chase, 5 hours at 37° C., ± s.e.m. The method, then:
(Green, N. M. Methods in Enzymol. 184: 51-67, 1990). Dissociation was then initiated by addition of cold biotin at a final concentration of 50 μM and time-points taken over 5 hours at 37° C. 50 μL aliquots were removed and added to 200 μL 0.2M ZnSO4 chilled on ice, followed by 200 μL 0.2 M NaOH. The protein precipitate was pelleted by centrifugation at 16,500 g for 5 min, and ^3H-biotin in the supernatant was measured by liquid scintillation counting. Data were plotted as ln(fraction bound) versus time, and fit to a straight line by linear regression. Dissociation rates were deduced from the slope of the line and the equation: ln(fraction bound)=−koff(t) where fraction bound=(total ^3H-biotin−free ^3H-biotin at timepoint)/(total ^3H-biotin−free ^3H-biotin before cold biotin chase).

Series [2] can be described thus: Thermostability assay of streptavidin tetramer (SDS-PAGE). Type of series: physicochemical. The following applies: 100° C., 3 min in PBS.
In series [3] the test system is biotinylated AP-neuroligin-1 on hippocampal neurons. Nature of the series: AP-neuroligin-1 clustering in hippocampal neurons labeled with streptavidin. It is filed as cell-based, rat. The following applies: two hour incubation at 37° C., Alexa Fluor 568 conjugate; ± s.e.m., n=9. On the procedure:
HeLa cells were grown in Dulbecco's Modified Eagle Medium (DMEM) with 10% Fetal Calf Serum, 50 U/mL penicillin and 50 μg/mL streptomycin. HeLa stably expressing AP-CFP-TM or Ala-CFP-TM have been previously described (Howarth, M. et al., Proc. Natl. Acad. Sci. USA 102: 7583-7588, 2005). Dissociated primary neuronal cultures were prepared from Embryonic Day 18 or 19 (E18/19) rats and transfected with Lipofectamine 2000 at DIV6 as in Levinson et al. (Levinson, J. N. et al., J. Biol. Chem. 280: 17312-17319, 2005). […]
Images of HeLa cells were collected on a Zeiss Axiovert 200M inverted epifluorescence microscope using a 40× oil-immersion lens and a MicroMAX CCD camera (Roper Scientific; Tucson, Ariz.). CFP (420DF20 excitation, 450DRLP dichroic, 475DF40 emission) and Alexa568 (560DF20 excitation, 585DRLP dichroic, 605DF30 emission) images were collected and analyzed using OpenLab software (Improvision; Lexington, Mass.). Fluorescence images were background-corrected. […] Images were scaled to 16 bits and analyzed in Northern Eclipse (Empix Imaging; Ontario, Canada) with user-written software. […] Results were then calculated in terms of clusters per micrometer of dendrite. For assessment of pre-synaptic terminals, clusters were determined as before and average grey levels of clusters were compared between transfected dendrites and untransfected dendrites within the same field of view. […]

Series [4] is described as follows: Subunit exchange of monovalent avidin over time by SDS-PAGE. It is filed as physicochemical. The method, then:
(§1) Methods described in the Avidin Methods section above herein are used for the following production and testing of monovalent avidin. Tests are performed to determine whether monovalent avidin will rearrange its subunit composition over time. […] Wild-type avidin and A1D3 are heated in PBS at various temperatures and tetramer disassembly is determined by SDS-PAGE.

Series [5] in a line: Thermostability assay of avidin tetramer (SDS-PAGE). It is filed as physicochemical. The following applies: 100° C., PBS. The method, then:
2.3 μM wild-type avidin or chimeric avidin in PBS is heated at the indicated temperature for 3 min in a PTC-200 PCR machine (MJ Research; Waltham, Mass.) and then immediately placed on ice (Bayer, E. A. et al. Electrophoresis 17: 1319-1324, 1996). Samples are mixed with 6×SDS-PAGE loading buffer and loaded onto a 16% polyacrylamide gel.
as §1

“A1D3: Monovalent streptavidin tetramer: one His6-tagged wild-type (A) subunit and three dead (D) subunits [Tetramer A1D3]”: in series [1], the off-rate from biotin is listed as 6.14±0.19×10^−5 s^−1. Moreover, the “fraction remaining tetrameric on heating” value in series [2] and in series [5] was “significant fraction” in each case. For the same substance, the “AP-neuroligin-1 clusters per micrometer of dendrite” value in series [3] came to 0.087±0.021 clusters/μm. Further, the “A1D3 avidin rearranged into D4” value in series [4] (37° C. for one day or room temperature for one week) is listed as “small percentage”. Also, the “Formation of A2D2 from subunit exchange” value in series [4] (37° C. one day or room temperature one week) is listed as “not detected”.
